Several values for one entry are separate records, joined by “and”; a condition that tells them apart may be missing. Equal values may be shown once.
System: transgenic rice plants
Assay: glyphosate resistance of the EPSPS mutant in transgenic rice plants sprayed with Roundup 41% ammonium glyphosate
Assay type: in vivo, rice (Nipponbare)
In short: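 EPSPS mutant genes were cloned into pGVP1 and introduced into Nipponbare rice embryo-derived calluses via Agrobacterium EHA105 (OD 0.2, 10 min infection, 2–3 days co-culture at 25 °C in the dark). Calluses went through recovery, two 14-day screening rounds at 30 °C, two differentiation rounds and rooting to regenerate transgenic plants.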

[1] = 1× dosage 1060 g/hectare glyphosate sprayed, recorded on 10th day
[2] = 2× dosage 2120 g/hectare sprayed to plants surviving 1×, recorded 10 days later
[3] = 5× dosage 5300 g/hectare sprayed to plants surviving 2×, recorded 10 days later
[4] = 20× dosage 21200 g/hectare sprayed to plants surviving 5×, recorded 10 days later

B1: R6: rice EPSPS mutant, SEQ ID NO: 40, mutations S267(247)G, L214(195)P and P116(101)S (protein)
chain: MASNAAAAAAKAEEIVLQPIREISGAVQLPGSKSLSNRILLLSALSEGTTVVDNLLNSEDVHYMLEALKALGLSVEADKVAKRAVVVGCGGKFPVEKDAKEEVQLFLGNAGTAMRSLTAAVTAAGGNATYVLDGVPRMRERPIGDLVVGLKQLGADVDCFLGTECPPVRVKGIGGLPGGKVKLSGSISSQYLSALLMAAPLALGDVEIEIIDKPISIPYVEMTLRLMERFGVKAEHSDSWDRFYIKGGQKYKSPGNAYVEGDASSAGYFLAGAAITGGTVTVQGCGTTSLQGDVKFAEVLEMMGAKVTWTDTSVTVTGPPREPYGKKHLKAVDVNMNKMPDVAMTLAVVALFADGPTAIRDVASWRVKETERMVAIRTELTKLGASVEEGPDYCIITPPEKLNITAIDTYDDHRMAMAFSLAACADVPVTIRDPGCTRKTFPNYFDVLSTFVRN
%++&+++ (percentage of plant having medium and high glyphosate resistance to the total number of plants observed) [1]: 70.0% | number of plants denoted by + (low glyphosate resistance) [1]: 7 | number of plants denoted by ++ (medium glyphosate resistance) [1]: 3 | number of plants denoted by +++ (high glyphosate resistance) [1]: 18 | number of plants denoted by − (no glyphosate resistance) [1]: 2 | glyphosate resistance / survival of the rice transformed by the EPSPS, in words (1× glyphosate dosage): had relatively high resistance to glyphosate | number of plants denoted by + (low glyphosate resistance) [2]: 3 | number of plants denoted by ++ (medium glyphosate resistance) [2]: 1 | number of plants denoted by +++ (high glyphosate resistance) [2]: 18 | number of plants denoted by − (no glyphosate resistance) [2]: 8 | glyphosate resistance / survival of the rice transformed by the EPSPS, in words (2× glyphosate dosage): had relatively high resistance to glyphosate | &++&+++ (percentage of plant having medium and high glyphosate resistance to the total number of plants observed) [3]: 63.3% | number of plants denoted by + (low glyphosate resistance) [3]: 0 | number of plants denoted by ++ (medium glyphosate resistance) [3]: 6 | number of plants denoted by +++ (high glyphosate resistance) [3]: 13 | number of plants denoted by − (no glyphosate resistance) [3]: 11 | &++&+++ (percentage of plant having medium and high glyphosate resistance to the total number of plants observed) [4]: 63.38% and 63.3% | number of plants denoted by + (low glyphosate resistance) [4]: 0 | number of plants denoted by ++ (medium glyphosate resistance) [4]: 11 | number of plants denoted by +++ (high glyphosate resistance) [4]: 8 | number of plants denoted by − (no glyphosate resistance) [4]: 11

— patent US11584938B2, “Plant EPSPS mutant containing L195P and S247G mutations and encoding gene and use thereof” (GEVOTO LLC, priority 2017, dated 2023)
